Read-outs that look alike come from different tables or passages of the source.
Columns and labels:
[1] = test system: CCCC(=O)SCCNC(=O)CCNC(=O)[C@H](O)C(C)(C)COP(=O)(O)OP(=O)(O)OC[C@H]1O[C@@H](n2cnc3c(N)ncnc32)[C@H](O)[C@@H]1OP(=O)(O)O; assay: purified protein, by the assay type; conditions: other: acyl substrate varied, SAM held at 95 μM
[2] = molecular target: T1, RhlI (Pseudomonas aeruginosa, UniProt P54291); format: biochemical; conditions: acyl substrate varied, SAM held at 95 μM; for Km: read-out: Apparent Km
T1 sequence (P54291 whole entry, looked up): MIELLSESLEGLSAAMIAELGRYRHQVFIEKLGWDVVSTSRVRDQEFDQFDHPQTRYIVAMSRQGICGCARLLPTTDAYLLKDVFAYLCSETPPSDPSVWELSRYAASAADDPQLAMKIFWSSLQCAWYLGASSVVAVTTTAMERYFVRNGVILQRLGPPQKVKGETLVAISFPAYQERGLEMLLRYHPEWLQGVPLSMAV

[3] = molecular target: T1, RhlI; assay: radioactive in vitro assay for RhlI activity (C14-labeled SAM); format: biochemical; conditions: for Activity in radioactive assay: potential acyl group substrates, 61 μM SAM as co-substrate
[4] = molecular target: T1, RhlI; format: biochemical
[5] = molecular target: T1, RhlI; format: biochemical; conditions: 61 μM SAM as co-substrate; tested in the R. solanacearum bioassay
[6] = potential acyl group substrates, 61 μM SAM as co-substrate

Compound | Km [2] | Activity in radioactive assay [3] | Activity in butyryl HSL bioassay [4, 6] | Apparent Vmax [2] | also measured
RhlI (Pseudomonas aeruginosa PAO1) |  |  |  |  | Km [1]: 230 µM
butyryl-ACP: acylated acyl carrier protein with attached butyryl group; acyl substrate of RhlI | 6 µM | 650 nmoles butyryl HSL formed min^−1 mg^−1 | 532 nmoles butyryl HSL formed min^−1 mg^−1 |  | 
octanoyl-ACP: acylated acyl carrier protein with attached octanoyl group | 43 µM | 28 nmoles butyryl HSL formed min^−1 mg^−1 |  | 1.8 mol of butyryl HSL min^−1 mol^−1 of RhlI | Activity in radioactive assay ([3]; listed as Octanoyl-ACP): demonstrated to be a substrate of RhlI; Activity in bioassay (R. solanacearum bioassay) [5]: not detected as a substrate
NC(=O)C1=CN([C@@H]2O[C@H](COP(=O)(O)OP(=O)(O)OC[C@H]3O[C@@H](n4cnc5c(N)ncnc54)[C@H](OP(=O)(O)O)[C@@H]3O)[C@@H](O)[C@H]2O)C=CC1 [NADPH] |  |  |  |  | effect on the reaction rate ([3]; included with butyryl-ACP and SAM): slightly increase
CCCCCC(=O)SCCNC(=O)CCNC(=O)[C@H](O)C(C)(C)COP(=O)(O)OP(=O)(O)OC[C@H]1O[C@@H](n2cnc3c(N)ncnc32)[C@H](O)[C@@H]1OP(=O)(O)O [hexanoyl-CoA] |  | 4 nmoles butyryl HSL formed min^−1 mg^−1 |  |  | 
hexanoyl-ACP: acylated acyl carrier protein with attached hexanoyl group | 8 µM | 263 nmoles butyryl HSL formed min^−1 mg^−1 | 91 nmoles butyryl HSL formed min^−1 mg^−1 | 9.6 mol of butyryl HSL min^−1 mol^−1 of RhlI | 
N[C@@H](CCS)C(=O)O [homocysteine] |  |  |  |  | activity, fold less when compared to reactions containing SAM ([4]; butyryl HSL bioassay, amino acid substrate): at least 150 fold; Activity in butyryl HSL bioassay ([4]; potential amino acid substrates, 39 μM butyryl ACP as co-substrate): <2 nmoles butyryl HSL formed min^−1 mg^−1
CCCC(=O)SCCNC(=O)CCNC(=O)[C@H](O)C(C)(C)COP(=O)(O)OP(=O)(O)OC[C@H]1O[C@@H](n2cnc3c(N)ncnc32)[C@H](O)[C@@H]1OP(=O)(O)O [butyryl-CoA] |  | 82 nmoles butyryl HSL formed min^−1 mg^−1 | 38 nmoles butyryl HSL formed min^−1 mg^−1 | 2.1 mol of butyryl HSL min^−1 mol^−1 of RhlI | 
